Assay results published in patent US20250043002A1.

Key:
[1] = molecular target: human CD28 expressed with a C-terminal murine Fc tag (hCD28.mFc) (human); test: SPR Biacore 25 C, hCD28.mFc captured by anti-mFc, antibody injected
[2] = molecular target: human PD-L1 expressed with a C-terminal myc-myc-hexahistidine tag (hPD-L1.mmH) (human); test: SPR Biacore 25 C, antibody captured by anti-hFc, hPD-L1.mmH injected
[3] = molecular target: hPD-L1-mFc: hPD-L1 extracellular domain (amino acids F19-T239) expressed with the Fc portion of mouse IgG2a at the C-terminus (human; mouse) (UniProt Q9NZQ7); test: blocking ELISA, 0.7 nM hPD-L1-mFc on plate-coated hPD1-hFc
Sequence of hPD-L1-mFc: hPD-L1 extracellular domain (amino acids F19-T239) expressed with the Fc portion of mouse IgG2a at the C-terminus (human; mouse) (Q9NZQ7 19-239 limits assumed): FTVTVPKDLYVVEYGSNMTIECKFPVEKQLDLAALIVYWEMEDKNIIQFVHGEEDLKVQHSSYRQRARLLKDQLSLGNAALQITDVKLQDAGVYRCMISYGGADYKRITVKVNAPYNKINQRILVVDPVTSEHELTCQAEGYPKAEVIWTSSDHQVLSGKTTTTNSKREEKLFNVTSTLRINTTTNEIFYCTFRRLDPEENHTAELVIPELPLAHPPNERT

Sequence of human PD-L1 expressed with a C-terminal myc-myc-hexahistidine tag (hPD-L1.mmH) (human) (chain, as listed by the source limits assumed): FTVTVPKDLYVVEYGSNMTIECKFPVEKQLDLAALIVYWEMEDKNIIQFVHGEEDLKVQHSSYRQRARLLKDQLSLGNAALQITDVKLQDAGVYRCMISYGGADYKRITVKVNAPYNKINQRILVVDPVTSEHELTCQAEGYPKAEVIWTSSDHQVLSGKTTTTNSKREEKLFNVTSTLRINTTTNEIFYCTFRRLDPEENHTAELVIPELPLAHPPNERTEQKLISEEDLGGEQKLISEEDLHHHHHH

90 nM mAb Bind (RU) [1] | 30 nM hPD-L1.mmH Bind (RU) [2] | % Blocking at 100 nM mAb [3] | Substance
-4.3 RU | 0.5 RU |  | Isotype Control (antibody)
 |  | 1% | Isotype control 1 (antibody)
 |  | 1% | Isotype control 2 (antibody)
 |  | 4% | Isotype control 3 (antibody)
